Here are results for 6 molecules from patent US20030077318A1.

Assay [1] addresses T1, soluble H-2K^b (K^bsol), heterodimer of truncated K^b heavy chain and murine β-2 microglobulin, purified empty from Drosophila cells (murine), P01901.
T1 chain 1: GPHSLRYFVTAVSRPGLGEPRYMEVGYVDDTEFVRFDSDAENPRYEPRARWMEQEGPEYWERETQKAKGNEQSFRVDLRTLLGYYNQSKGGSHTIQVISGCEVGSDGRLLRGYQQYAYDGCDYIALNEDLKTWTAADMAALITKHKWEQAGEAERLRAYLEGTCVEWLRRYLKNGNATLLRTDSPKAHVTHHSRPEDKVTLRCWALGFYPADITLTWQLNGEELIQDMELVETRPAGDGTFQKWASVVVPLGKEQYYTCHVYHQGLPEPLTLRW
T1 chain 2: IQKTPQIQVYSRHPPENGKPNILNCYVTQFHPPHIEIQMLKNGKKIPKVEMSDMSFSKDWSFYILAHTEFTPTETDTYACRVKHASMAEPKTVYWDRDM
The experiment in a line: competitive RIA against [^125I]VSV-8 on K^bsol, P30 gel filtration, 23° C. A general note: SEC sorts molecules by how far they enter the pores of the column.

The target of assay [2] is T1, soluble H-2K^b (K^bsol), heterodimer of ….
For assay [3] the target is unchanged.

Like-named read-outs stand apart in the source and are kept apart here.

Broadly, the Kd is the concentration at which binding is half-saturated. Take RGYVYQGLK (modifications not checked) [VSV-9C]: the Kd in assay [1] amounted to 6.9 nM.

As for LRGYVYQGL (modifications not checked) [VSV-9N], the Kd in assay [1] was determined as 7.3 nM.

Molecule DLRGYVYQGL (modifications not checked) [VSV-10N] showed a Kd in assay [1] of 390 nM.

In assay [1], RGYVYQGL (modifications not checked) [VSV-8] had a Kd of 3.7 nM.

For RGYVYQGLKS (modifications not checked) [VSV-10C], the dissociation constant Kd in assay [1] was 21 nM.

On to RGYVYQGL (modifications not checked) [[^125I]VSV-8], for which the half-time of association in assay [2] is 5 min. Also, in assay [3], the Kd worked out at 33 nM.
